Tests used:
Experiment in all cases: cell-based or functional assay
[1] = target: T1, pUL130pUL131 (HEK293T cells transfected with the HCMV genes) (HCMV, UniProt P16772 1-214; F5HET4 19-129)
T1 sequence (looked up) 1: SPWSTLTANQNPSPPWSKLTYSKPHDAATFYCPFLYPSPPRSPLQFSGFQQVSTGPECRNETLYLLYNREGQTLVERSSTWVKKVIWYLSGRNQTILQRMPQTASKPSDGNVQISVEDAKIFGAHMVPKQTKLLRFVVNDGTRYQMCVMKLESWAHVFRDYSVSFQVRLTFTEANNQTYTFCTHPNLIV
T1 sequence (looked up) 2: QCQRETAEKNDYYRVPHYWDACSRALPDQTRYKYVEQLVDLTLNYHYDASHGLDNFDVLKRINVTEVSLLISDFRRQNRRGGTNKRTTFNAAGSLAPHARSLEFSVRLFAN

[2] = target: T2, pUL128pUL130pUL131 (HEK293T cells transfected with the HCMV genes) (HCMV, UniProt P16837 1-171; P16772 1-214; F5HET4 19-129)
T2 sequence (looked up) 1: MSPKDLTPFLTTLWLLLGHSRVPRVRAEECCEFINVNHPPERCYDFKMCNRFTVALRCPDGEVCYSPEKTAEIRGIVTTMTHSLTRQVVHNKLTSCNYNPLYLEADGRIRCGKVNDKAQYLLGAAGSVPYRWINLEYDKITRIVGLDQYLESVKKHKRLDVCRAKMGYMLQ
T2 sequence (looked up) 2: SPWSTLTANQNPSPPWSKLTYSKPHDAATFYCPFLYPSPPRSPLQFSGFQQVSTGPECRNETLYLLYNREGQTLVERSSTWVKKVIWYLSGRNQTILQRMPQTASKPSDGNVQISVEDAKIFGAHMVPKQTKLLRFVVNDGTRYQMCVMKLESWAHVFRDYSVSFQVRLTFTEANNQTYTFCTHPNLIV
T2 sequence (looked up) 3: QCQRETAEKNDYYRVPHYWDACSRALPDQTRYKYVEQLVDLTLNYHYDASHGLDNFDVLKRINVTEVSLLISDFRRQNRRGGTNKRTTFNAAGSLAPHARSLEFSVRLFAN

[3] = target: T3, pUL128 (HEK293T cells transfected with the HCMV gene) (HCMV, UniProt P16837 1-171, limits assumed)
T3 sequence (looked up): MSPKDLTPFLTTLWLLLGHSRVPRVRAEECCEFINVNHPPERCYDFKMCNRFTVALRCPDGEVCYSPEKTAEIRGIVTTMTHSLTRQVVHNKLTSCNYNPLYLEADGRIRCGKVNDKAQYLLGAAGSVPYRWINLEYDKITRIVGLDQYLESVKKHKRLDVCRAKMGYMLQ

[4] = target: T4, gHgLpUL128pUL130 (HEK293T cells transfected with the HCMV genes) (HCMV, UniProt P12824 24-743; P16832 31-278; P16837 1-171; P16772 1-214)
T4 sequence (looked up) 1: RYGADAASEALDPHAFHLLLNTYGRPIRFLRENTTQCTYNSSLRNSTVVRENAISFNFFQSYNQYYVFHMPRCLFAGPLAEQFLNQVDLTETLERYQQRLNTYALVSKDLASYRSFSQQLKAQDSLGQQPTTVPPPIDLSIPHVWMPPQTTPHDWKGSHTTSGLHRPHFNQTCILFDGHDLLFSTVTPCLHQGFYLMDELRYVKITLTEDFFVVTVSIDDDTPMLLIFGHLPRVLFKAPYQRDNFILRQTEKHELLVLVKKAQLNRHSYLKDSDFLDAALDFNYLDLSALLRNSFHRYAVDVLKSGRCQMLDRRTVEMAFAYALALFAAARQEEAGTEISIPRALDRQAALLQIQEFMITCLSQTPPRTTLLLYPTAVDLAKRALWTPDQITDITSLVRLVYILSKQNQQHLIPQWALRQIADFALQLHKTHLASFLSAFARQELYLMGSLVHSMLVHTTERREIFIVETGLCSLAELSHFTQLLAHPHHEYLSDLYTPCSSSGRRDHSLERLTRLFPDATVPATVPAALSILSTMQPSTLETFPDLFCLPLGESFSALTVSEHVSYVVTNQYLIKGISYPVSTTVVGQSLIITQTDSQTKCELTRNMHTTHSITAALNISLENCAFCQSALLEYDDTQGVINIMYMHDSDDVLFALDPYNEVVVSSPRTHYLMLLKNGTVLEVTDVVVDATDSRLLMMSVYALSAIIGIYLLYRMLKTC
T4 sequence (looked up) 2: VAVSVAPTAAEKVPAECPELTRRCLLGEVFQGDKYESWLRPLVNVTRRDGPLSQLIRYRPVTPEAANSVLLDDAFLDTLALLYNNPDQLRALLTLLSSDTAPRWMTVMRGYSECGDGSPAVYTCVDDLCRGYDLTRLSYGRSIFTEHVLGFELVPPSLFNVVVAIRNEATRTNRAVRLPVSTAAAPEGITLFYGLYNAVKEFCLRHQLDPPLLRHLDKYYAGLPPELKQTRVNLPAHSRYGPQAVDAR
T4 sequence (looked up) 3: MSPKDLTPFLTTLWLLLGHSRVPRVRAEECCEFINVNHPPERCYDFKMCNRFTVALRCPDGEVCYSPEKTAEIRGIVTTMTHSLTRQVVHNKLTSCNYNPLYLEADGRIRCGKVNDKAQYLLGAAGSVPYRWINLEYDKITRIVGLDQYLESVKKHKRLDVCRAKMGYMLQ
T4 sequence (looked up) 4: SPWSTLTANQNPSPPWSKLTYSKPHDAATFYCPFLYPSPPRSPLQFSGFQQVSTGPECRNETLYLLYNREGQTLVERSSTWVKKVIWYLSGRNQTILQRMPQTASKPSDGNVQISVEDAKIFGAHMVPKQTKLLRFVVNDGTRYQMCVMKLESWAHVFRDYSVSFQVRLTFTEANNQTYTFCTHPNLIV

Binder	Log IC80, neutralization of HCMV infection of epithelial cells [1]	Log IC80, neutralization of HCMV infection of epithelial cells [2]	other results
human monoclonal antibody 8L13 (antibody, V domains shown) VH: QVQLLESGGGVVQPGRSLRLSCAASGFTFSNYGMHWVRQAPGKGLEWVAVIWNDGSKKYYAESVKGRFTISRDNSKNTVYLQMNSLRAEDTAVYYCARDEGVQMVFAMPDYGMDVWGQGTTVTVSS VL: SYELTQPPSVSVSPGQTASITCSGDKLGDKFACWYQQRPGQSPILVIYQDSKRPSGIPERFSGSNSGNTATLTIRGTQAMDEADYYCQAWDSSTAHYVFGTGTKVTVL	-11.6 log IC80 (concentration unit not printed)		
human monoclonal antibody 10P3 (antibody, V domains shown) VH: EVQLVESGGGLVRPGGSLRLSCAASGFTFHNYRMNWVRQAPGKGLEWVANIKQDGSEKSYVDSVRGRFTTSRDNSKNSLYLQINSLRAEDTAVYYCARGEGYTYGVVYSYSAMDVWGQGTTVIVSS VL: SYELTQPPSVSVSPGQTARITCSGNVLPNQYASWYQQKPGQAPVLVIYKDTERPSGIPGRFSGSSSGTTVTLTISGVQAEDEADYYCQSADSSGADYVFGTGTKVTVL	-10.5 log IC80 (concentration unit not printed)		
human monoclonal antibody 8J16 (antibody, V domains shown) VH: QVQLQESGPGLVKPSETLSLTCSVSGGFTSSYYWSWIRQAPGKGLEWIGYVYYGESTDYNPSLKSRATISIDTSKNQFSLKLSSVTAADTAVYYCAREVDKRGFDYWGQGALVTVSS VL: EIVLTQSPGTLSLSPGERATLSCRASQSVSGGYLAWYQQEPGQAPRLVIYGASSRATGIPDRFSASGSGTDFTLTITRLEPEDFAVYYCQQYGRTPLTFGGGTKVEIK		-12.3 log IC80 (concentration unit not printed)	
human monoclonal antibody 15D8 (antibody, V domains shown) VH: EVQLVQSGAEVKKPGESLKISCQASGYSFTNYWIAWVRQMPGKGLEWMGIIYPGDSDIKYSPSFRGQVTISADKSISNAFLQWRSLRASDTAMYYCARHAIRGDGFDYWGQGTLVTVSS VL: SYELTQPPSVSVSPGQTATITCSGDKLGEKYACWYQQKPGQSPVLVMYQDTKRPSGIPERFSGSNSGNTATLTISGTRAMDEADYYCQAWDTNTVIFGGGTKLTVL			Log IC80, neutralization of HCMV infection of epithelial cells [3]: -11 log IC80 (concentration unit not printed)
human monoclonal antibody 8I21 (antibody, V domains shown) VH: LVELVESGGGVVQPGRSLRLSCAASGFTFSSDGMHWVRQSPGRGLEWVAFISSDGSTPYYADSVKGRFTISRDNSKNTLYLQMNSLRAEDTAMYFCAKDWALFRWLRTFDHWGQGTLVTVSS VL: not shown			Log IC80, neutralization of HCMV infection of epithelial cells [4]: -9.5 log IC80 (concentration unit not printed)
human monoclonal antibody 7I13 (antibody, V domains shown) VH: QVQLVESGGGVVQPGRSLRLSCAASGFTFSNYGMHWVRQGPGKGLEWVAVISYDASSKYYTDSVQGRFTISRDNSKNTLFLQMNSLRGEDTAVYYCAKALRYLDWFLSDPFDYWGQGTLVTVSS VL: EIVLTQSPGTLSLSPGERATLSCRASQSVSSDFLAWYQQKPGQAPRLLIYGASSRATGIPDRFSGSGSGTDFTLTISRLEPEDFAVYYCQQYAASPPFGQGTRLEIK		-11 log IC80 (concentration unit not printed)	

Source: US20170119874A1 (INSTITUTE FOR RESEARCH IN BIOMEDICINE, published 2017)
